The experiment addresses PfOAT (recombinant ornithine aminotransferase) (P. falciparum strain 3D7) (UniProt Q6LFH8).

Sequence of PfOAT (recombinant ornithine aminotransferase) (P. falciparum strain 3D7) (Q6LFH8 whole entry): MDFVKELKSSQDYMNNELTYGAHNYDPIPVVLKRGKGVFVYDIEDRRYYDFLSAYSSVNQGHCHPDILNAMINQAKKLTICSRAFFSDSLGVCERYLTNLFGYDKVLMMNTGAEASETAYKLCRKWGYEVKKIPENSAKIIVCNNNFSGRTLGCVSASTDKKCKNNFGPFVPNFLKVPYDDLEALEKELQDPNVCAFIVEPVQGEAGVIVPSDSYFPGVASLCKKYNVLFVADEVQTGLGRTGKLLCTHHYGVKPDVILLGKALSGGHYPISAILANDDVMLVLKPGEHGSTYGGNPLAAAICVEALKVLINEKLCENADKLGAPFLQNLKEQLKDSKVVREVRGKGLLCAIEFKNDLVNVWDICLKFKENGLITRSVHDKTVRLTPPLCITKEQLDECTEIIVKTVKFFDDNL

On to “PfTrx1 (wild type thioredoxin) (from UniProt Q7KQL8 1-104) (natural protein)”, for which the OAT activity (ornithine aminotransferase assay) with equimolar wild type thioredoxin amounted to 75%.
